In a protein production outcome set (Wang et al. 2014):

Experiment: label from the status in PepcDB records

Sequence	protein production
MVKGLVVAGALLMASGCQMLQSMMPAGDEEMPRVREGTLAALPATETRQVQGIEAGSGPTDDVSIETVMESYKALLPLVDDPRKQVTIRHRLADLEFQRAERKMADTAVDELAGAIEAYQRLLSEYPEREGNDKIYYQLARAWELRGATPQQLDTLDTLVRRYPDSDYWIEAQFRRGDLLFIDGRYREAEQAFDEVTLASQERMADASFLVNAHYMKGWSLFKQAQYQEALFSYVEVLDLVMPEGQPVEDVDQRSQTLIEDLFRVVGLSLSYLDGAETLQALFRQTGGRPYEILVYDRYSELLVEREQYGDAIDVFEAYIEDHPASPWAPRYHIRIIDTLELAGFTRTVPERKADFVSLYGIYSDYWQSAGPDAMGFIEQQLEQLLPELADRQYLLAGESSDQQQADDHYRKAASYYAEFAATFPDHPRTPERLFLLGETYLELEDWAEAIAAFERVAYDYPQDTVSGRAAEAGYASVLAFREYSITWNSLPISEQAAYQELQQLNRLRFANAFPEDPRAPAVYYIALQHEFDRNNWEETVNMAARLVTWQPTPSAELTTEALLLSGHSLSELARYSEAEQAYRDALATMAEDDERRSGVRENLAAAVYRQAEQLADAGNVEAAVGEFLRVGTVVPESALRANAEYDAASLLITANLWEQAIGVLTSFRQAFPDHELIDTVPAKLALAYRETAQWERAADELQQMVALATTPEERRENLLIAAELYDQAGNRDKAIDTWRNYANSHPEPADVYMEAANRLAELYQEADDTVKRDYWLRKQMETVDRNPDAADDRMRYLAASASATLAREALARYDSIRLTLPLNESMTAKTDALERAVNAYKKTASYGLSSFATEAGYQIAHIYGRLGADLMDSERPTGLSELELAQYELLLEEQAYPFEDNAIDIHEQNIRRAREGIFDEWVKRSYEALKVLLPGRYRKEEVTSGVVYELD	failed
MIDHRPTSWSRLCTALTSGASCTIGGQAVMEGVMMRNGDRLAIAMRRPDGEIVAESRPWFSLTRSAWLKRPFVRGFPILVETLVNGIKALNRSAEQAVEGETGEELKPWQLAATLAVSVAMALGLFVVVPHLFSIGMKLLGLGGDVEGLSFHMWDGFFKFAVFIGYIVAISFVPDIRRVFQYHGAEHKVIRAFEAAGDVTPDTAMHHSRLHPRCGTTFLLFVLSISIILHAVLVPLLMLVWTPSGAFAKHGVTVLFKLLLMIPISALAYETIRYAARLGEGLTGTLLRAPGMLLQKLTTGEPDREQLEVAIVALREALGDDAPQSVRAPAYRHLE	failed
MFELWYIHISLAIVSAIFSILIFLEFKSLRKEFHGKLSGVLLLISVLLLFESVVNAVAFSMWSYGHDPVYVYPSMAIAIVSTSVIILFYYYVAKV	failed
MDPLLLIGAITAGGVLIGGGVHFVPVGGAPAAMATATGVGTGTAMLAAGAGLTGLITAAAMTGQSPLMIMAAGAVGSMLMIGITMLVGNLIYVYGVGTVPVSAKVAVDPLTGMEQEKYVTPGTEGHGLPTVCFVSGIIGGALGGIGGGLIYWALNEALKTLSYGAIGAAGVAAIFAVGIFFINAVIASYNIGGTIEGFHDPKFKRIGRGIVACLIASIVAGALSTLLVYGGVF	failed
MVWPFKSKFRKQIARIEITGAIASGTRKRVLEALKTVEERKFPALLLRIDSPGGTVGDSQEIYSALKRLREKIKIVASFGNISASGGVYIGMGAEHIMANPGTITGSIGVILRGNNLERLLDKIGVSFKVIKSGPYKDILSFDRELTEPEQDILQELIDTSYQQFVQTVAEGRSLAVDKVKSFADGRIFTGQQALELGVVDRLGTEEEARRWTAELVGLDPEKTPCYTLEERKPLLSRVLPGSRKGYSRLGASIDWLEFEMSTSGLPLWLYRP	failed
MATNLIGLDTTQSQKLANALNNLLANYQVFYMNTRGYHWNIQGKEFFELHAKFEEIYTDLQLKIDELAERILTLSARPMHSFSGYLKAAQIKEHTDSIDGRSSMQGLVDGFSILLHQQRDILELAGETGDEGTSALMSDYIREQEKLVWMLNAWLK	not failed
MNALVLYFDGKCPFCAAEMRRLSEWDTQHQLAFVDIAQEGFDCSSLNVDLAALNRELHGRTSDGRLLVGIDCMIAAYTLAGHGWLVLPLRVPGLRRVLANLYRAFAGNRYTLSRWLGYGTATACDGDSCGTGNPFLSGKELTDAAEDRPARRDSRQLAVRWMYAAAIAHLLVGAAMPWAADATLFGTYHRIVEQSFWSGAAPAQARAQQVWWIALFGATLQCSAIWMLALVHLGNRTRHRMAWGWLLVGLLVWAPQDLLISLQAHVWPHVLVDAVALLTMIPPLLYLWRKDAA	failed
MKLIASNKKAYFDYEILETLEAGLALLGSEVKALRQTRVNLKDNFVKIIKGEAFLFGVHISYLDTIHAYYKPNERRERKLLLHKKQLLKWQIEASKERLSIVGLKLYFNQRNRAKIQIALVKGKRLHDKRQSLKEKALNKEILADLKHHFKG	failed
MKEKVSVPFMLLGILFNVCLIAANLLETKVIQVGSITVTAGLLVFPISYIINDCIAEVWGFKKARLIIWSGFAMNFFVVALGLIAVALPAAPFWEGEQHFDFVFGMAPRIVVASLLAFLVGSFLNAYVMSKMKVASGGRNFSSRAIWSTMVGETADSLIFFPIAFGGLIAWPELLVMMGTQIVLKSLYEVIILPITIRVVKAVKRIDGSDVYDTDISYNVLKVKDI	failed
MSLAEFRAQYLVRFWSPIPALLALGVASAYYFAITGTFWAVTGEFTRWGGHIAALLGFSPQQWSYFQLIGLNGSPLERIDGVMIIGMFAGALCAALWAGNVQLRWPTSRRRLAQGLIGGIIAGFGARLAMGCNLAAFFTGIPMFSLHAWAFMLTTVIGAWIGVKLCLLPFLRTPLRLDTAPSSLFADTASLARRARLQNRLGLLIAVLVLGFAAWRFETSLVLGLAVLFGVFFGAVIERGQICFTSAARDLWTTGRTRIAYGILLGMVVACLGTFGAIALGATPKIFWMGPNAALGGLLFGIGIVLAGGCETGWMYRAMEGQVHFWIVGIGNVIGGTLVAIFWDELGGTLALPYPKINLLEYLGAGTGLLLSLAGLMLAMLLVYLNARRFAVREGLAR	failed
MDNEMNYGSDYKFIPATSIESGHGIEVLRDLFCYTIQIVNICFVGNPETNDFVLVDAGMPKCANEIISIAKDRFGTNSRPKAIILTHGHFDHVGGIIELIKHWDVHVYAHQMEIPFLTGQQSYPEPDPTVEGGMVAKMSPLFPNEPIDLGNNVKALPTDGTVPHMPEFRWIHTPGHTPGHISLFREKDRTLIAGDAFVTVKQEYLYKVITQEQEISGPPRYLTTDWKAAKESVLKLEKLKPLTAVTGHGIPMSGELLSTSLKTLVQEFDKIAVPDYGKYIDKKMHLEHHHHHH	not failed
VTGSIRSKLSAIDVRQLGTVDYRTAWQLQRELADARVAGGADTLLLLEHPAVYTAGRRTETHERPIDGTPVVDTDRGGKITWHGPGQLVGYPIIGLAEPLDVVNYVRRLEESLIQVCADLGLHAGRVDGRSGVWLPGRPARKVAAIGVRVSRATTLHGFALNCDCDLAAFTAIVPCGISDAAVTSLSAELGRTVTVDEVRATVAAAVCAALDGVLPVGDRVPSHAVPSPL	not failed
MFNKISLEIMKRSALTLMPTVLALAVGMAMPAVQAAINSDASVVGTESQWWNTYKVTLTNNGNQPVELRDASIAFDTNLSLSTPSWSAQGISYPSMSFSSNAQGSVFSNRLTLSFDQGSWVKTQLLPGASIDLTLGVSGVLELSLLQSTIALETDGEVEPGEPEISLELASPVQGAEFIEGQTVAIVANVTATNTTVKTVTFLVDGEQIALLEQAPFQASWTAAGEGAHSIKAIVEDASGLLKEQAVRITVKAEEIDPPVEPEVPVAPVIELTNPRNGQSVFLGKVTTLAANATDENNDLTAVEFLVNGESIGRVTQAPYQLAWTPVALGQYTIEAIAYDAAGHQTQTPMVTVNAKEMGTGNLSCDIKQIYREDGTECMGDDHPRRIIGYYTSWRTGKNGLPAYLAGDLPWEKLTHINYAFASINKSDFSMQVDDSATKMTWENVPGAEMDPSLPYQGHFNLLSKFKKQYPDVKTLISVGGWAETGGFYPMTTDLASCSVNMEGIKAFNKSAVDFIRQYDFDGVDIDYEYPSSMKDSGNPVDFEQSNKCRGQLWDNYMVMMTELRKALDKAGEEDGRRYMLTIASPSSAYLLRGMQDFAMQDVLDYVNIMSYDLHGTWNEFVGPQAALFDDGKDAELAKWGVYTTAEYQGIGYLNQAWTHHFFRGAFKPSQINMGIPYYTRGWQGVSGGDKGLWGRAVEPNQSSCPEGTTVCGWGAEGTDNIWHDVDANGNEIKAGVVPMWHAMNLMHAEKLGIDGMPSYGPAWGMDPNNPKHLIEGKYERVWSQELQTAWLWNDTKKVFLSIEDKDSLKPKLDYIVDNGLGGMMIWEMAGDYSYDAVKREYVIGSDMTSYAHEVFAAAKPMDIRHNDLPQPDSVIDVTVSTTEWPEGDSNYPINPKLVFTNHSNVAIPGGSTIEFLMPTSSGDIVKDWSGAGLKVIESGHTGSNFSVNGEKKLFHKVAVTLRSTETIPAGGEYSVDMVYYTPVSGVANGVRFIVGNETVGLKKDFPTLPAFEGATDGGNGNEGGAGQSCADAGINPNGLKVYPEFPRGDHAAGGDQLIHNGSVWQANWWTNSTPSSADASWKAVCKI	failed
MADQSFAVLGLGKFGMALTVALLKAEQDVLVIDSNEEVINDVAHLVTHAVIADATDEDELRDLDIGSFDHVFVTMGENVEGSIITTMLAKKLGAPDVTTRANNHNHRLVLEKIGADHVIEPEQDMARQLIFRQLHPNVVNYFNLSKNISLIEVSVENSRFFNQSLGDLDFRKNYDVSVIGIVHDGKLNQVPLATDVIAPHDQITLIGSNKAVQRLDDILREEK	failed
MSNEHTRPPLPPFTRESAIEKVRLAEDGWNTREPEKIALAYTVDTQWRNRAEFANNREEARDFLTRKWKKELDYRLIKELWAFTDNRIAVRYAYEWHDDSGNWFRSYGNENWEFEADGLMHRRFACINDMPIKESERKFHWPLGRRPDDHPGLTELGLLEHHHHHH	failed
MRRKLRYLNYRILIPYLILVVVGIILVYSASSDILLVNGFKPDVYGIRQAIYAAVAFFGFGIPFFALRLKVIKNPKFVAGFLIICILMLLWLVFLRFAHGSAAAVNGAVGWINLGFINLQPLEVTKLALVIYLAYVLDRRDGKLVRGKIKDNLSHPAMLAGFLMCLVIVEPDFGGTAILFMITLVMFSVSGVPVRLALTWLLGIILLVGAVFILVVLWNPKFLQDSYQFQRLMSFLHPFQLERKGGAQLVNSYYAIHNGGLFGVGLGNSMQKRGYLPEPYTDFILSITAEEIGVIFTIVLVGLLFYLMWQIMEVGINAVSQFDALICFGVTTIIFTEALFNIGAVLGLLPITGVTLPFISYGGSSMIVLTAAIGLVLNVSANEKMLKEKDETIA	failed
MQPDTQEIVVDEVFPHAPETIWKTLTTAELMGRWLMMPAGFEPIEGKRFTYQTTPAGDWDGTIHCQVLEVKPNERLTYAWKGGHAGNTGYGSPLDTVVTFILSRAGNGTRLRLVHSGFVLPKNETAYRKMGEGWKKVVKNIGALAGGEDLEHHHHHH	failed
MAARAWVVAVVGFFVMWLMFQVVGWVIGVIWGVWQQLDQATAGTMIEPPQDWKNMLNSLYSNMLGIWNYLPVVVLLSAVVYIIIESLRRRPEEYYV	failed
STMSGYLYRSKGSKKPWKHLWFVIKNKVLYTYAASEDVAALESQPLLGFTVTLVKDENSESKVFQLLHKGMVFYVFKADDAHSTQRWIDAFQEGTV	not failed
MICTPKVGLNNQLTKVQFFMTKYNFLFKQQVIEFYLQNDKNSSLTRRHFQLAETTLERWINQFNHSGINGLALLGKKRNYSPEFKLNVIQAVKNGKFSAEAACLHFGIANSGVVSQWLQAFEKQGINGLIPKPKGRPTMKLQYPKMPPKPKTREEELELENLRLRAENAILKKLQELNQQKMQKKPLSLEHHHHHH	failed
